In patent US20170313754A1 (PROTAGONIST THERAPEUTICS, published 2017):
One block for each binder: values may come before it. Numbered stars: 1 amine (or outer) side, 2 acyl side, 3 side chain; on linkers, the order of the positions; unused ones are H or OH. Bridge positions count the residues as written; N and C are the ends. Square brackets hold non-standard residues; d marks the D form. Ends that are not written are not given here. * marks the point of attachment. Ida = iminodiacetic acid, O=C(CN(CC(=O)[*:3])[*:1])[*:2]; Dip = N[C@H](C(=O)O)C(c1ccccc1)c1ccccc1; β3hF = N[C@H](CC(=O)O)Cc1ccccc1; pGlu = O=C1CC[C@@H](C(=O)O)N1; β3hP = O=C(O)C[C@@H]1CCCN1; Isovaleryl = CC(C)CC(=O)*

Biological target: T1, human ferroportin (SLC40A1) fused in frame with GFP, stably expressed in HEK293 cells (human, UniProt Q9NP59 1-571)
T1 sequence (looked up): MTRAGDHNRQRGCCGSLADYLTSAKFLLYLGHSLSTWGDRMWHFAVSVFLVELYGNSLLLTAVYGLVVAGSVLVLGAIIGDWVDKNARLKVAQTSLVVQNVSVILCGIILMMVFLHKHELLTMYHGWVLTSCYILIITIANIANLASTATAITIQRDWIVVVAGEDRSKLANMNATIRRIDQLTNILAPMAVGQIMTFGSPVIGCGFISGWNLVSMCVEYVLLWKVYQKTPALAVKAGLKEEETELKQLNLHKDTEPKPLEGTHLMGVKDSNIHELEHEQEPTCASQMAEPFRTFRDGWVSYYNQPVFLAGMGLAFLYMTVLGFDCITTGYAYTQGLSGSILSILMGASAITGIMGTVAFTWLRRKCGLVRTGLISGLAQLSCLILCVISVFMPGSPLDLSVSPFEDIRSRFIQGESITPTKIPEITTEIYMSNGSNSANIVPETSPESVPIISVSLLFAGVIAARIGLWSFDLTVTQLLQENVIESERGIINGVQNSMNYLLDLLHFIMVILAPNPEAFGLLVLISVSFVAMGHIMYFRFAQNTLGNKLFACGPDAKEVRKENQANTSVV
Assay: cell-based or functional assay

Potency: percent at the stated concentration, ferroportin-GFP internalization/degradation: 52 % at 1 µM
Binder: H-DTHFPCIF-NH2 [Hy-DTHFPCIF-NH2]

Potency EC50 (nM), ferroportin-GFP internalization/degradation: > 10000 nM
Binder: H-DTHAPCIIF-NH2 [Hy-DTHAPCIIF-NH2]

Potency EC50 (nM), ferroportin-GFP internalization/degradation: 7 nM
B1: Isovaleric acid-DTHFPCIKF-NH2 (peptide)
peptide: Isovaleryl-DTHFPCIKF-NH2
SMILES: CC[C@H](C)[C@H](NC(=O)[C@H](CS)NC(=O)[C@@H]1CCCN1C(=O)[C@H](Cc1ccccc1)NC(=O)[C@H](Cc1c[nH]cn1)NC(=O)[C@@H](NC(=O)[C@H](CC(=O)O)NC(=O)CC(C)C)[C@@H](C)O)C(=O)N[C@@H](CCCCN)C(=O)N[C@@H](Cc1ccccc1)C(N)=O

Potency EC50 (nM), ferroportin-GFP internalization/degradation: > 1000 nM
Binder: H-DTHFPCQIF-NH2 [Hy-DTHFPCQIF-NH2]

Potency EC50 (nM), ferroportin-GFP internalization/degradation: > 1000 nM
Binder: Isovaleryl-DTHFPCIKKEPHSKECK-NH2 (disulfide 6-16 (inferred)) [Isovaleric acid-DTHFPCIKKEPHSKECK-NH2]

Potency: percent at the stated concentration, ferroportin-GFP internalization/degradation: 89 % at 1 µM
Binder: H-DTHFPCILF-NH2 [Hy-DTHFPCILF-NH2]

Potency EC50 (nM), ferroportin-GFP internalization/degradation: > 1000 nM
Binder: H-DTHFPCIIA-NH2 [Hy-DTHFPCIIA-NH2]

Potency EC50 (nM), ferroportin-GFP internalization/degradation: > 1000 nM
Binder: H-DTHFPCAIF-NH2 [Hy-DTHFPCAIF-NH2, listing 2 of 2 here]

Potency EC50 (nM), ferroportin-GFP internalization/degradation: 739 nM
Binder: H-DTAFPCIIF-NH2 [Hy-DTAFPCIIF-NH2]

Potency EC50 (nM), ferroportin-GFP internalization/degradation: > 1000 nM
Binder: H-DTHFPRRFGPRSKGWVC-NH2 [Hy-DTHFPRRFGPRSKGWVC-NH2]

Potency EC50 (nM), ferroportin-GFP internalization/degradation: > 1000 nM
Binder: H-DTHFPCRIF-NH2 [Hy-DTHFPCRIF-NH2, listing 2 of 2 here]

Potency EC50 (nM), ferroportin-GFP internalization/degradation: > 1000 nM
Binder: [Ida]THF[β3hP]CRR[β3hF]GPRSKGWVC-NH2 (disulfide 6-18 (inferred)) [[IDA]-THF-[bhPro]-CRR-[bhPhe]GPRSKGWVC-NH2]

Potency: percent at the stated concentration, ferroportin-GFP internalization/degradation: 64 % at 1 µM
Binder: H-LTHFPCIIF-NH2 [Hy-LTHFPCIIF-NH2]

Potency: percent at the stated concentration, ferroportin-GFP internalization/degradation: 39 % at 1 uM
Binder: H-DTHFPCLF-NH2 [Hy-DTHFPCLF-NH2]

Potency EC50 (nM), ferroportin-GFP internalization/degradation: > 10000 nM
Binder: H-DTHCPIAIF-NH2 [Hy-DTHCPIAIF-NH2]

More lines, now with the values behind:

Binder: H-DTHFPCIIR-NH2 [Hy-DTHFPCIIR-NH2]
Potency: percent at the stated concentration, ferroportin-GFP internalization/degradation: 62 % at 1 µM

Binder: H-DTHFPCFIF-NH2 [Hy-DTHFPCFIF-NH2]
Potency EC50 (nM), ferroportin-GFP internalization/degradation: 1190 nM

Binder: H-DTHFPCKIF-NH2 [Hy-DTHFPCKIF-NH2]
Potency: percent at the stated concentration, ferroportin-GFP internalization/degradation: 9 % at 10 uM

Binder: H-DTHFPCAIF-NH2 [Hy-DTHFPCAIF-NH2, listing 1 of 2 here]
Potency EC50 (nM), ferroportin-GFP internalization/degradation: > 1000 nM

Binder: H-DTHFPCLIF-NH2 [Hy-DTHFPCLIF-NH2]
Potency EC50 (nM), ferroportin-GFP internalization/degradation: > 10000 nM

B2: Hy-[pGlu]-THFPCRKF-NH2 (peptide)
peptide: [pGlu]THFPCRKF-NH2
SMILES: C[C@@H](O)[C@H](NC(=O)[C@@H]1CCC(=O)N1)C(=O)N[C@@H](Cc1c[nH]cn1)C(=O)N[C@@H](Cc1ccccc1)C(=O)N1CCC[C@H]1C(=O)N[C@@H](CS)C(=O)N[C@@H](CCCNC(=N)N)C(=O)N[C@@H](CCCCN)C(=O)N[C@@H](Cc1ccccc1)C(N)=O
Potency EC50 (nM), ferroportin-GFP internalization/degradation: > 1000 nM

Binder: H-ATHFPCIIF-NH2 [Hy-ATHFPCIIF-NH2]
Potency EC50 (nM), ferroportin-GFP internalization/degradation: > 1000 nM

Binder: H-DTHFPCIEF-NH2 [Hy-DTHFPCIEF-NH2, listing 1 of 2 here]
Potency EC50 (nM), ferroportin-GFP internalization/degradation: > 1000 nM

Binder: H-DTHFPCRIFGPRSRGWVCK-NH2 (disulfide 6-18 (inferred)) [Hy-DTHFPCRIFGPRSRGWVCK-NH2]
Potency EC50 (nM), ferroportin-GFP internalization/degradation: > 1000 nM

Binder: H-DTHFPCRIF-NH2 [Hy-DTHFPCRIF-NH2, listing 1 of 2 here]
Potency: percent at the stated concentration, ferroportin-GFP internalization/degradation: 31 % at 10 uM

Binder: DTHFPCIKFKPHSKECK (N-terminal isovaleric acid; K(isoglu-Palm) at Lys 10; C-terminal amide) [Isovaleric acid-DTHFPCIKF-K(isoglu-Palm)-PHSKECK-NH2]
Potency EC50 (nM), ferroportin-GFP internalization/degradation: 6 nM

Binder: H-DTHFPCIEK-NH2 [Hy-DTHFPCIEK-NH2]
Potency: percent at the stated concentration, ferroportin-GFP internalization/degradation: 0 % at 1 µM

Binder: H-DTHFPCILK-NH2 [Hy-DTHFPCILK-NH2]
Potency: percent at the stated concentration, ferroportin-GFP internalization/degradation: 55 % at 1 µM

B3: Isovaleric acid-DTHFPCIIF-NH2 (peptide)
peptide: Isovaleryl-DTHFPCIIF-NH2
SMILES: CC[C@H](C)[C@H](NC(=O)[C@H](CS)NC(=O)[C@@H]1CCCN1C(=O)[C@H](Cc1ccccc1)NC(=O)[C@H](Cc1c[nH]cn1)NC(=O)[C@@H](NC(=O)[C@H](CC(=O)O)NC(=O)CC(C)C)[C@@H](C)O)C(=O)N[C@H](C(=O)N[C@@H](Cc1ccccc1)C(N)=O)[C@@H](C)CC
Potency EC50 (nM), ferroportin-GFP internalization/degradation: 16 nM

Binder: H-DTKFPCIIF-NH2 [Hy-DTKFPCIIF-NH2]
Potency: percent at the stated concentration, ferroportin-GFP internalization/degradation: 60 % at 1 µM

Binder: H-DTHFPCVIF-NH2 [Hy-DTHFPCVIF-NH2]
Potency: percent at the stated concentration, ferroportin-GFP internalization/degradation: 81 % at 10 uM

B4: Hy-DTHF-(D)-Ala-CIIF-NH2 (peptide)
peptide: H-DTHF[dA]CIIF-NH2
SMILES: CC[C@H](C)[C@H](NC(=O)[C@H](CS)NC(=O)[C@@H](C)NC(=O)[C@H](Cc1ccccc1)NC(=O)[C@H](Cc1c[nH]cn1)NC(=O)[C@@H](NC(=O)[C@@H](N)CC(=O)O)[C@@H](C)O)C(=O)N[C@H](C(=O)N[C@@H](Cc1ccccc1)C(N)=O)[C@@H](C)CC
Potency EC50 (nM), ferroportin-GFP internalization/degradation: > 10000 nM

Binder: H-DTHFPCIKFF-NH2 [Hy-DTHFPCIKFF-NH2]
Potency: percent at the stated concentration, ferroportin-GFP internalization/degradation: 64 % at 1 µM

Binder: H-DTHFPCIVF-NH2 [Hy-DTHFPCIVF-NH2]
Potency: percent at the stated concentration, ferroportin-GFP internalization/degradation: 75 % at 1 µM

Binder: H-DTHFPCIFGPRSKGWVC-NH2 (disulfide 6-17 (inferred)) [Hy-DTHFPCIFGPRSKGWVC-NH2]
Potency EC50 (nM), ferroportin-GFP internalization/degradation: > 1000 nM

Binder: H-DTHFPCIEF-NH2 [Hy-DTHFPCIEF-NH2, listing 2 of 2 here]
Potency EC50 (nM), ferroportin-GFP internalization/degradation: > 1000 nM

Binder: Isovaleryl-DTHFPCKIFGPRSKGWECK-NH2 (disulfide 6-18 (inferred)) [Isovaleric acid-DTHFPCKIFGPRSKGWECK-NH2]
Potency EC50 (nM), ferroportin-GFP internalization/degradation: 163 nM

Binder: H-DTHFPCIIK-NH2 [Hy-DTHFPCIIK-NH2]
Potency: percent at the stated concentration, ferroportin-GFP internalization/degradation: 55 % at 1 µM

Binder: Isovaleryl-DTHFPCRRFGPRSKGWVCK-NH2 (disulfide 6-18 (inferred)) [Isovaleric acid-DTHFPCRRFGPRSKGWVCK-NH2]
Potency EC50 (nM), ferroportin-GFP internalization/degradation: > 1000 nM

Binder: H-DTHFPCRF-NH2 [Hy-DTHFPCRF-NH2]
Potency: percent at the stated concentration, ferroportin-GFP internalization/degradation: 31 % at 10 uM

Binder: H-DTHFPCEIF-NH2 [Hy-DTHFPCEIF-NH2]
Potency EC50 (nM), ferroportin-GFP internalization/degradation: > 1000 nM

Binder: [Ida]THF[β3hP]CIIF-NH2 [[Ida]-THF-[bhPro]-CIIF-NH2]
Potency EC50 (nM), ferroportin-GFP internalization/degradation: > 1000 nM

Binder: H-ETHFPCIIF-NH2 [Hy-ETHFPCIIF-NH2]
Potency: percent at the stated concentration, ferroportin-GFP internalization/degradation: 77 % at 1 µM

Binder: H-DTHFACIIF-NH2 [Hy-DTHFACIIF-NH2]
Potency EC50 (nM), ferroportin-GFP internalization/degradation: > 1000 nM

Binder: [Ida]TH[Dip][β3hP]CRR[β3hF]-NH2 [[IDA]-TH-[Dpa]-[bhPro]CRR-[bhPhe]-NH2]
Potency EC50 (nM), ferroportin-GFP internalization/degradation: 206 nM

Binder: Isovaleryl-DTHFPCKIFGPRSKGWVCK-NH2 (disulfide 6-18 (inferred)) [Isovaleric acid-DTHFPCKIFGPRSKGWVCK-NH2]
Potency EC50 (nM), ferroportin-GFP internalization/degradation: 86 nM
